The test system of the data set is Escherichia coli TOP10. As to the kind of experiment: shrunken log2 fold change of peptide-encoding DNA abundance (4.5 h post-induction vs induction); higher = less antimicrobial activity (less host growth inhibition). To be noted: time post-induction: 4.5 h; library: site-saturation at positions 5, 18, 19, 20.
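Note: peptides expressed intracellularly from a pBAD plasmid library in pooled LB shake-flask culture, induced with 0.3% L-arabinose, DNA abundance read by NGS, three biological replicates, DESeq2 with apeglm shrinkage.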

Turning to RRIRYRPPRLPRPRPRPCVFPRP, the “shrunken log2 fold change” value is -0.123.

As for RRIRFRPPRLPRPRPRPPEDPRP, the “shrunken log2 fold change” value came to 0.357. For RRIRFRPPRLPRPRPRPCVVPRP, the “shrunken log2 fold change” value is -0.379. Then RRIRCRPPRLPRPRPRPFSKPRP, with -0.203. To RRIRGRPPRLPRPRPRPEKMPRP belongs 0.59; to RRIRIRPPRLPRPRPRPWQYPRP, -0.0758; to RRIRSRPPRLPRPRPRPPHVPRP, 0.113. For the sequence RRIRLRPPRLPRPRPRPWQIPRP, the “shrunken log2 fold change” value stood at 0.019. To RRIRERPPRLPRPRPRPNVAPRP belongs -0.186. To RRIRCRPPRLPRPRPRPKARPRP belongs 0.315; to RRIRTRPPRLPRPRPRPPKWPRP, 0.181; to RRIRFRPPRLPRPRPRPCHVPRP, 0.0269. For RRIRLRPPRLPRPRPRPKFEPRP, the “shrunken log2 fold change” value was 0.0662. As to RRIRMRPPRLPRPRPRPPQHPRP, the “shrunken log2 fold change” value was found to be 0.817. As for RRIRVRPPRLPRPRPRPSLKPRP, the “shrunken log2 fold change” value stood at 0.215. Take RRIRPRPPRLPRPRPRPMVGPRP: the “shrunken log2 fold change” value was 0.265. Then RRIRYRPPRLPRPRPRPKWCPRP, with -0.00875. Take RRIRARPPRLPRPRPRPYLRPRP: the “shrunken log2 fold change” value was -0.228. Then RRIRNRPPRLPRPRPRPGCDPRP, with -0.0442; and RRIRTRPPRLPRPRPRPKSRPRP, with -0.0444. Then RRIRERPPRLPRPRPRPGVGPRP, with 0.428. To RRIRRRPPRLPRPRPRPSLPPRP belongs 0.44. With RRIRRRPPRLPRPRPRPGLDPRP, the “shrunken log2 fold change” value turned out to be 0.161. Turning to RRIRCRPPRLPRPRPRPDTAPRP, the “shrunken log2 fold change” value was -0.051.

RRIRERPPRLPRPRPRPMRPPRP: the “shrunken log2 fold change” value was found to be 0.772. As to RRIRWRPPRLPRPRPRPMTGPRP, the “shrunken log2 fold change” value is 0.019. As for RRIRTRPPRLPRPRPRPAAIPRP, the “shrunken log2 fold change” value was found to be 0.163. Then RRIRYRPPRLPRPRPRPRWSPRP, with -0.225; and RRIRCRPPRLPRPRPRPCDPPRP, with -0.0532; and RRIRTRPPRLPRPRPRPSTAPRP, with 0.181.

Turning to RRIRERPPRLPRPRPRPRTMPRP, the “shrunken log2 fold change” value was -0.135. Then RRIRVRPPRLPRPRPRPPMIPRP, with -0.523; and RRIRQRPPRLPRPRPRPPKLPRP, with 0.202; and RRIRARPPRLPRPRPRPHYYPRP, with -0.146.

RRIRDRPPRLPRPRPRPPEFPRP: the “shrunken log2 fold change” value is -0.0567. Then RRIRQRPPRLPRPRPRPSPTPRP, with 0.292; and RRIRPRPPRLPRPRPRPNLSPRP, with -0.168.

RRIRWRPPRLPRPRPRPMVMPRP: the “shrunken log2 fold change” value is -0.0614. Then RRIRERPPRLPRPRPRPPGQPRP, with 0.104; and RRIRYRPPRLPRPRPRPFGSPRP, with -0.0685. Then RRIRGRPPRLPRPRPRPRHNPRP, with 0.0863; and RRIRDRPPRLPRPRPRPEKRPRP, with -0.0167.

Turning to RRIRKRPPRLPRPRPRPMTPPRP, the “shrunken log2 fold change” value was determined as 0.334. On to RRIRCRPPRLPRPRPRPATQPRP, for which the “shrunken log2 fold change” value was found to be 0.262. Then RRIRGRPPRLPRPRPRPYAAPRP, with 0.859; and RRIRMRPPRLPRPRPRPDDLPRP, with 2.58. Consider RRIRMRPPRLPRPRPRPHKYPRP, for which the “shrunken log2 fold change” value is -0.152.

For the sequence RRIRTRPPRLPRPRPRPCVPPRP, the “shrunken log2 fold change” value was -0.109. As for RRIRNRPPRLPRPRPRPPSWPRP, the “shrunken log2 fold change” value came to 0.161. To RRIRLRPPRLPRPRPRPMERPRP belongs -0.00192; to RRIRNRPPRLPRPRPRPKSLPRP, -0.433. To RRIRIRPPRLPRPRPRPINTPRP belongs -0.954; to RRIRERPPRLPRPRPRPKALPRP, -0.113; to RRIRKRPPRLPRPRPRPNCTPRP, 0.335. Then RRIRTRPPRLPRPRPRPTACPRP, with 0.277.

As to RRIRSRPPRLPRPRPRPEYMPRP, the “shrunken log2 fold change” value was -0.609.

Turning to RRIRSRPPRLPRPRPRPKDRPRP, the “shrunken log2 fold change” value stood at 0.201.

Take RRIRVRPPRLPRPRPRPLYHPRP: the “shrunken log2 fold change” value is -0.677.

With RRIRCRPPRLPRPRPRPYYFPRP, the “shrunken log2 fold change” value is -1.08. Then RRIRYRPPRLPRPRPRPNDNPRP, with -0.635. In the case of RRIRTRPPRLPRPRPRPEWCPRP, the “shrunken log2 fold change” value came to 0.272. RRIRSRPPRLPRPRPRPRSEPRP: the “shrunken log2 fold change” value turned out to be 0.0656.

Turning to RRIRQRPPRLPRPRPRPEQGPRP, the “shrunken log2 fold change” value amounted to 0.0169. To RRIRTRPPRLPRPRPRPERRPRP belongs 0.0791; to RRIRERPPRLPRPRPRPWIGPRP, 0.155; to RRIRVRPPRLPRPRPRPQHPPRP, -0.0951. To RRIRGRPPRLPRPRPRPIGRPRP belongs 0.551; to RRIRWRPPRLPRPRPRPNTDPRP, -0.262.

Regarding RRIRLRPPRLPRPRPRPTLRPRP, the “shrunken log2 fold change” value turned out to be 0.161. Consider RRIRFRPPRLPRPRPRPDSYPRP, for which the “shrunken log2 fold change” value was -0.236. To RRIRERPPRLPRPRPRPVGNPRP belongs -0.191. To RRIRTRPPRLPRPRPRPHHWPRP belongs -0.0973; to RRIRYRPPRLPRPRPRPMDKPRP, -0.432. For the sequence RRIRARPPRLPRPRPRPCCKPRP, the “shrunken log2 fold change” value is -0.12. To RRIRDRPPRLPRPRPRPESWPRP belongs 1.58; to RRIRPRPPRLPRPRPRPEAEPRP, 0.979. Then RRIRGRPPRLPRPRPRPAEVPRP, with 0.31; and RRIRHRPPRLPRPRPRPYSFPRP, with -0.299. To RRIRKRPPRLPRPRPRPHWTPRP belongs -0.0277.

RRIRPRPPRLPRPRPRPNWMPRP: the “shrunken log2 fold change” value came to 0.0917. Then RRIRTRPPRLPRPRPRPSGMPRP, with -0.34; and RRIRERPPRLPRPRPRPWQGPRP, with 0.0776.

On to RRIRDRPPRLPRPRPRPYSDPRP, for which the “shrunken log2 fold change” value was 0.0396.

Consider RRIRFRPPRLPRPRPRPCLRPRP, for which the “shrunken log2 fold change” value is -0.205. For RRIRNRPPRLPRPRPRPNGPPRP, the “shrunken log2 fold change” value was -0.015.

With RRIRWRPPRLPRPRPRPHGWPRP, the “shrunken log2 fold change” value turned out to be 0.213. Then RRIRMRPPRLPRPRPRPWPTPRP, with 0.675; and RRIRCRPPRLPRPRPRPCCFPRP, with -0.155; and RRIRPRPPRLPRPRPRPIHMPRP, with -0.23. Then RRIRDRPPRLPRPRPRPSLAPRP, with 0.474. To RRIRGRPPRLPRPRPRPCQKPRP belongs 0.0649; to RRIRFRPPRLPRPRPRPQCRPRP, -0.218; to RRIRIRPPRLPRPRPRPTHNPRP, -0.145.

As to RRIRNRPPRLPRPRPRPYKEPRP, the “shrunken log2 fold change” value is -0.0525. Take RRIRTRPPRLPRPRPRPVRFPRP: the “shrunken log2 fold change” value turned out to be 0.0687. To RRIRARPPRLPRPRPRPHVQPRP belongs 0.00547; to RRIRDRPPRLPRPRPRPVDQPRP, -0.131; to RRIRGRPPRLPRPRPRPATFPRP, 0.326.

Consider RRIRNRPPRLPRPRPRPFDYPRP, for which the “shrunken log2 fold change” value was -0.262. Consider RRIRQRPPRLPRPRPRPQAHPRP, for which the “shrunken log2 fold change” value is -0.23. To RRIRARPPRLPRPRPRPPVPPRP belongs 0.638; to RRIRNRPPRLPRPRPRPDMPPRP, -0.244; to RRIRRRPPRLPRPRPRPCMTPRP, 0.409.

Regarding RRIRVRPPRLPRPRPRPHECPRP, the “shrunken log2 fold change” value is -0.0944. In the case of RRIRKRPPRLPRPRPRPYTQPRP, the “shrunken log2 fold change” value was -0.0811. RRIRIRPPRLPRPRPRPDVQPRP: the “shrunken log2 fold change” value was -0.192. To RRIRQRPPRLPRPRPRPCLVPRP belongs -0.252; to RRIRERPPRLPRPRPRPGLKPRP, 0.131; to RRIRPRPPRLPRPRPRPTCKPRP, -0.0419. Then RRIRNRPPRLPRPRPRPVKLPRP, with 0.032; and RRIRSRPPRLPRPRPRPPNRPRP, with 0.238; and RRIRERPPRLPRPRPRPWCMPRP, with -0.533. Turning to RRIRYRPPRLPRPRPRPQWSPRP, the “shrunken log2 fold change” value was -0.0453. To RRIRSRPPRLPRPRPRPIWMPRP belongs -0.000641; to RRIRERPPRLPRPRPRPNHMPRP, -0.31. RRIRWRPPRLPRPRPRPKSCPRP: the “shrunken log2 fold change” value was determined as 0.178. Regarding RRIRNRPPRLPRPRPRPKCMPRP, the “shrunken log2 fold change” value is -0.0394. As for RRIRERPPRLPRPRPRPINEPRP, the “shrunken log2 fold change” value is -0.281. As to RRIRPRPPRLPRPRPRPGYCPRP, the “shrunken log2 fold change” value is -0.147. Then RRIRCRPPRLPRPRPRPSPWPRP, with 0.0328; and RRIRNRPPRLPRPRPRPETWPRP, with 0.0309.

On to RRIRCRPPRLPRPRPRPERLPRP, for which the “shrunken log2 fold change” value was determined as 0.0345.

RRIRDRPPRLPRPRPRPKNDPRP: the “shrunken log2 fold change” value was -0.103. To RRIRGRPPRLPRPRPRPGQAPRP belongs 0.353. Then RRIRPRPPRLPRPRPRPAANPRP, with 0.17.

(Values after the supplement of paper PMC9112550, “Optimization of the antimicrobial peptide Bac7 by deep mutational scanning” (BMC Biology, 2022).)
